Reference: IntAct's records for PubMed 16824107

B1: Cytochrome c biogenesis ATP-binding export protein CcmA (Escherichia coli (strain K12)), P33931 (parent)
chain: MGMLEARELLCERDERTLFSGLSFTLNAGEWVQITGSNGAGKTTLLRLLTGLSRPDAGEVLWQGQPLHQVRDSYHQNLLWIGHQPGIKTRLTALENLHFYHRDGDTAQCLEALAQAGLAGFEDIPVNQLSAGQQRRVALARLWLTRATLWILDEPFTAIDVNGVDRLTQRMAQHTEQGGIVILTTHQPLNVAESKIRRISLTQTRAA
partner: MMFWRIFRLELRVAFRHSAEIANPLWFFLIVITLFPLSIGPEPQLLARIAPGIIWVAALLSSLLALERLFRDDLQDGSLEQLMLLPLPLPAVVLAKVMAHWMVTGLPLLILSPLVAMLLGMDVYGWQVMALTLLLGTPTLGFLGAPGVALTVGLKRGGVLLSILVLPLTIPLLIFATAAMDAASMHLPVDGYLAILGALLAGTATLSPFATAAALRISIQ
B2: Cytochrome c biogenesis ATP-binding export protein CcmA (Escherichia coli (strain K12)), P33931 (parent)
chain: B1 chain
partner: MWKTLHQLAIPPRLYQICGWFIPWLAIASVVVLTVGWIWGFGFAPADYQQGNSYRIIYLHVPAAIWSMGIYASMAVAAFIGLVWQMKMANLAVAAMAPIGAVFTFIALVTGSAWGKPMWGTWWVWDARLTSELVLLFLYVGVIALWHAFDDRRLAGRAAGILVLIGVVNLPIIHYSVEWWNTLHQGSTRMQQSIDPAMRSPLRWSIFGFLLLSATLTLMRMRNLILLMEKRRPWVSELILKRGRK

Variants of: B1
Settings: with ccmb_ecoli ccmB

Row | Variant | effect of a mutation on the interaction
1 | G132A | with no effect

Variants of: B2
Settings: with ccmc_ecoli ccmC

Row | Variant | effect of a mutation on the interaction
2 | G132A | with no effect
